Experimental data: IntAct's records for PubMed 22252508

B1: DNA mismatch repair protein Mlh1 (Homo sapiens), P40692 (parent)
chain: MSFVAGVIRRLDETVVNRIAAGEVIQRPANAIKEMIENCLDAKSTSIQVIVKEGGLKLIQIQDNGTGIRKEDLDIVCERFTTSKLQSFEDLASISTYGFRGEALASISHVAHVTITTKTADGKCAYRASYSDGKLKAPPKPCAGNQGTQITVEDLFYNIATRRKALKNPSEEYGKILEVVGRYSVHNAGISFSVKKQGETVADVRTLPNASTVDNIRSIFGNAVSRELIEIGCEDKTLAFKMNGYISNANYSVKKCIFLLFINHRLVESTSLRKAIETVYAAYLPKNTHPFLYLSLEISPQNVDVNVHPTKHEVHFLHEESILERVQQHIESKLLGSNSSRMYFTQTLLPGLAGPSGEMVKSTTSLTSSSTSGSSDKVYAHQMVRTDSREQKLDAFLQPLSKPLSSQPQAIVTEDKTDISSGRARQQDEEMLELPAPAEVAAKNQSLEGDTTKGTSEMSEKRGPTSSNPRKRHREDSDVEMVEDDSRKEMTAACTPRRRIINLTSVLSLQEEINEQGHEVLREMLHNHSFVGCVNPQWALAQHQTKLYLLNTTKLSEELFYQILIYDFANFGVLRLSEPAPLFDLAMLALDSPESGWTEEDGPKEGLAEYIVEFLKKKAEMLADYFSLEIDEEGNLIGLPLLIDNYVPPLEGLPIFILRLATEVNWDEEKECFESLSKECAMFYSIRKQYISEESTLSGQQSEVPGSIPNSWKWTVEHIVYKALRSHILPPKHFTEDGNILQLANLPDLYKVFERC
partner: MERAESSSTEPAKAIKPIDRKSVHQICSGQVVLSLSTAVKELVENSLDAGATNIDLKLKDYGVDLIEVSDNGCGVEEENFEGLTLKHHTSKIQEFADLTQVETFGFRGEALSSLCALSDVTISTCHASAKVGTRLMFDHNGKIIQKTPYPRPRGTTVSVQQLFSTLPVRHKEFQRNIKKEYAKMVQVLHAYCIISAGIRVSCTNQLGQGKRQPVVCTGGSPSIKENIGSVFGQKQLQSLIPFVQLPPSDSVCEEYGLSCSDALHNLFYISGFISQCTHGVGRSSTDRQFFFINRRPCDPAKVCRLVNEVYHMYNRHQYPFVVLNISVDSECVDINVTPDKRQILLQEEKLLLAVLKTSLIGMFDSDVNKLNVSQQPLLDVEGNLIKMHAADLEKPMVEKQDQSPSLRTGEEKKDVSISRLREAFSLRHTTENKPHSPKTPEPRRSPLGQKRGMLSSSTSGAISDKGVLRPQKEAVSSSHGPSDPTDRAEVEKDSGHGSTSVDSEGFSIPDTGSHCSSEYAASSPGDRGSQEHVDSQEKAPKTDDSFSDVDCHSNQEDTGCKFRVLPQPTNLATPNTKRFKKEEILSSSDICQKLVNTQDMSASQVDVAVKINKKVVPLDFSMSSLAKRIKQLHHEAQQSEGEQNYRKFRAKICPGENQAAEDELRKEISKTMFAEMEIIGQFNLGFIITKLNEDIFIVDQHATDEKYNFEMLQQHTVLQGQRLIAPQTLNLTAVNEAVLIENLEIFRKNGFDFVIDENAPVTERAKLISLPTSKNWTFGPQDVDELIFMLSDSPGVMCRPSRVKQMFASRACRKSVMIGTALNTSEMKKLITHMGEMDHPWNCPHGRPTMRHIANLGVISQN
B2: Tumor protein 63 (Homo sapiens), Q9H3D4 (parent)
chain: MNFETSRCATLQYCPDPYIQRFVETPAHFSWKESYYRSTMSQSTQTNEFLSPEVFQHIWDFLEQPICSVQPIDLNFVDEPSEDGATNKIEISMDCIRMQDSDLSDPMWPQYTNLGLLNSMDQQIQNGSSSTSPYNTDHAQNSVTAPSPYAQPSSTFDALSPSPAIPSNTDYPGPHSFDVSFQQSSTAKSATWTYSTELKKLYCQIAKTCPIQIKVMTPPPQGAVIRAMPVYKKAEHVTEVVKRCPNHELSREFNEGQIAPPSHLIRVEGNSHAQYVEDPITGRQSVLVPYEPPQVGTEFTTVLYNFMCNSSCVGGMNRRPILIIVTLETRDGQVLGRRCFEARICACPGRDRKADEDSIRKQQVSDSTKNGDGTKRPFRQNTHGIQMTSIKKRRSPDDELLYLPVRGRETYEMLLKIKESLELMQYLPQHTIETYRQQQQQQHQHLLQKQTSIQSPSSYGNSSPPLNKMNSMNKLPSVSQLINPQQRNALTPTTIPDGMGANIPMMGTHMPMAGDMNGLSPTQALPPPLSMPSTSHCTPPPPYPTDCSIVSFLARLGCSSCLDYFTTQGLTTIYQIEHYSMDDLASLKIPEQFRHAIWKGILDHRQLHEFSSPSHLLRTPSSASTVSVGSSETRGERVIDAVRFTLRQTISFPPRDEWNDFNFDMDARRNKQQRIKEEGE
partner: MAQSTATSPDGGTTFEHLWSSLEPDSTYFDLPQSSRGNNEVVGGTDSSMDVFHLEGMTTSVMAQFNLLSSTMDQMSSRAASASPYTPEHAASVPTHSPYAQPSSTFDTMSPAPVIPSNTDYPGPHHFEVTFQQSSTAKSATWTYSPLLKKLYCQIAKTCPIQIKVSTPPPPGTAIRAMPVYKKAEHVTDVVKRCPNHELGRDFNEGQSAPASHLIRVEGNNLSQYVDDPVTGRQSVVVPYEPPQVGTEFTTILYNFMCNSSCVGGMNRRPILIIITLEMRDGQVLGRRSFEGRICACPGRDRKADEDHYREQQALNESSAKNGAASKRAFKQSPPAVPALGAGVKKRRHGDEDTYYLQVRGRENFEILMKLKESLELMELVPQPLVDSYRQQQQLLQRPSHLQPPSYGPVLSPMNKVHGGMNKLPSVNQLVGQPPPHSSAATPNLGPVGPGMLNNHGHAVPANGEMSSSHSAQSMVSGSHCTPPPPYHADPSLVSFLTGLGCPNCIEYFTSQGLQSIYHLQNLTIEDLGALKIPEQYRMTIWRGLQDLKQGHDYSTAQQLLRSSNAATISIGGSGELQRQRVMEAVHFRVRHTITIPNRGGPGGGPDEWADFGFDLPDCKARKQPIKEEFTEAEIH
B3: Actin nucleation-promoting factor WAS (Homo sapiens), P42768 (parent)
chain: MSGGPMGGRPGGRGAPAVQQNIPSTLLQDHENQRLFEMLGRKCLTLATAVVQLYLALPPGAEHWTKEHCGAVCFVKDNPQKSYFIRLYGLQAGRLLWEQELYSQLVYSTPTPFFHTFAGDDCQAGLNFADEDEAQAFRALVQEKIQKRNQRQSGDRRQLPPPPTPANEERRGGLPPLPLHPGGDQGGPPVGPLSLGLATVDIQNPDITSSRYRGLPAPGPSPADKKRSGKKKISKADIGAPSGFKHVSHVGWDPQNGFDVNNLDPDLRSLFSRAGISEAQLTDAETSKLIYDFIEDQGGLEAVRQEMRRQEPLPPPPPPSRGGNQLPRPPIVGGNKGRSGPLPPVPLGIAPPPPTPRGPPPPGRGGPPPPPPPATGRSGPLPPPPPGAGGPPMPPPPPPPPPPPSSGNGPAPPPLPPALVPAGGLAPGGGRGALLDQIRQGIQLNKTPGAPESSALQPPPQSSEGLVGALMHVMQKRSRAIHSSDEGEDQAGDEDEDDEWDD

Variants of: B1
Conditions: with pms2_human PMS2, P54278

| Variant | effect of a mutation on the interaction |
| --- | --- |
| I107R | disrupting interaction strength |
| N338S | with no effect |
| Q149H | with no effect |
| H381Y | with no effect |
| L259S | with no effect |
| Y293D | disrupting interaction strength |
| I68N | disrupting interaction strength |

Variants of: B2
Conditions: with p73_human TP73, O15350

| Variant | effect of a mutation on the interaction |
| --- | --- |
| I549T | decreasing interaction strength |
| S580P | decreasing interaction strength |
| R594P | decreasing interaction strength |
| F565L | decreasing interaction strength |

Variants of: B3
Conditions: with cdc42_human CDC42, P60953
Sequence of cdc42_human CDC42, P60953 (P60953 whole entry, looked up): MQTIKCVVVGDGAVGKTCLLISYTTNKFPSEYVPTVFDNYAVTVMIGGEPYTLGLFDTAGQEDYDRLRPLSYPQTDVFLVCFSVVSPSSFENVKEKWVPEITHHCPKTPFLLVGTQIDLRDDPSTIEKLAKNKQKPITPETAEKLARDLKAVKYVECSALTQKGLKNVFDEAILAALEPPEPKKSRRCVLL

| Variant | effect of a mutation on the interaction |
| --- | --- |
| R41G | with no effect |
| I294T | decreasing interaction strength |
| E131K | with no effect |
